How the values were obtained:
mad14_orysj MADS14 [1] = target: mad14_orysj MADS14 (UniProt Q10CQ1)
mad14_orysj MADS14 [2] = target: mad14_orysj MADS14 (UniProt Q10CQ1); remark: listed apart in the source

mad14_orysj MADS14, sequence (Q10CQ1 whole entry): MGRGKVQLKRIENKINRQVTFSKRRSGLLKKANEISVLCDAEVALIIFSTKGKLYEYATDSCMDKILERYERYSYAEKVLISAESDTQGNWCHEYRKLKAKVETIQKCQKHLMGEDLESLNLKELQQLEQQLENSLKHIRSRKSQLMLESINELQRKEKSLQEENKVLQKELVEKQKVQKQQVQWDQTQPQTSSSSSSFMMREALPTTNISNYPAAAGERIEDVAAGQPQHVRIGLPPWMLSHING
MADS-box transcription factor 6 (Oryza sativa subsp. japonica (Rice)), Q6EU39 L126R;L134R, sequence (Q6EU39 whole entry L126R/L134R): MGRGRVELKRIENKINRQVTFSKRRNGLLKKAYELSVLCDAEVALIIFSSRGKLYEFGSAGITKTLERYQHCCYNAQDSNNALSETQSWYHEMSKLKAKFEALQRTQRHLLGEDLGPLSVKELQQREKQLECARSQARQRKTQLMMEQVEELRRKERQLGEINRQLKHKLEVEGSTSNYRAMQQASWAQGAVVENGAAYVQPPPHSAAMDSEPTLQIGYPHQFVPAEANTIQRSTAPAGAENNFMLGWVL
MADS-box transcription factor 6 (Oryza sativa subsp. japonica (Rice)), Q6EU39 L110R;L118R;L159R;L166R, sequence (Q6EU39 whole entry L110R/L118R/L159R/L166R): as the sequence (Q6EU39 whole entry L126R/L134R) above, with L110R, L118R, R126L, R134L, L159R, L166R counted along it
MADS-box transcription factor 6 (Oryza sativa subsp. japonica (Rice)), Q6EU39 L110S;L118R, sequence (Q6EU39 whole entry L110S/L118R): as the sequence (Q6EU39 whole entry L126R/L134R) above, with L110S, L118R, R126L, R134L counted along it
MADS-box transcription factor 6 (Oryza sativa subsp. japonica (Rice)), Q6EU39 L110R;L118R, sequence (Q6EU39 whole entry L110R/L118R): as the sequence (Q6EU39 whole entry L126R/L134R) above, with L110R, L118R, R126L, R134L counted along it
MADS-box transcription factor 6 (Oryza sativa subsp. japonica (Rice)), Q6EU39 L159R;L166R, sequence (Q6EU39 whole entry L159R/L166R): as the sequence (Q6EU39 whole entry L126R/L134R) above, with R126L, R134L, L159R, L166R counted along it

Row | effect of a mutation on the interaction (mad14_orysj MADS14 [1]) | effect of a mutation on the interaction (mad14_orysj MADS14 [2]) | Substance
1 | decreasing interaction strength |  | MADS-box transcription factor 6 (Oryza sativa subsp. japonica (Rice)), Q6EU39 L110S;L118R
2 | disrupting interaction strength | disrupting interaction strength | MADS-box transcription factor 6 (Oryza sativa subsp. japonica (Rice)), Q6EU39 L126R;L134R
3 |  | disrupting interaction strength | MADS-box transcription factor 6 (Oryza sativa subsp. japonica (Rice)), Q6EU39 L159R;L166R
4 | disrupting interaction strength | disrupting interaction strength | MADS-box transcription factor 6 (Oryza sativa subsp. japonica (Rice)), Q6EU39 L110R;L118R;L159R;L166R
5 |  | decreasing interaction strength | MADS-box transcription factor 6 (Oryza sativa subsp. japonica (Rice)), Q6EU39 L110R;L118R
